The source of these data is US20200207857A1.

First the molecules themselves.
B1: h5C9oa (antibody, V domains shown)
VH: EVQLVESGGGLVQPGGSLRLSCAVSGYTFSMNWVRQAPGKGLEWVAWINMYTGEPTYADDFKGRFTISRDDSKNTLYLQMNSLRAEDTAVYYCARLYNGNSLDYWGQGTLVTVSS
VL: DIQMTQSPSSLSASVGDRVTITCKSSQSLLNSGNQKSYLTWYQQKPGKAPKLLIYWASTLESGVPSRFSGSGSGTDYTLTISSLQPEDFATYYCQNAYAFPFTFGQGTKVEIK
B2: h5C9og (antibody, V domains shown)
VH: EVQLVESGGGLVQPGGSLRLSCAVSGYTFSMNWVRQAPGKGLEWVAWINMYTGEPTYADDFKGRFTISRDDSKNTLYLQMNSLRAEDTAVYYCARLYRGNSLDYWGQGTLVTVSS
VL: DIQMTQSPSSLSASVGDRVTITCKSSQSLLNSGNQKSYLTWYQQKPGKAPKLLIYWASTLESGVPSRFSGSGSGTDYTLTISSLQPEDFATYYCQNSYSFPFTFGQGTKVEIK
B3: h5C9oc (antibody, V domains shown)
VH: EVQLVESGGGLVQPGGSLRLSCAVSGYTFSMNWVRQAPGKGLEWVAWINMYTGEPTYADDFKGRFTISRDDSKNTLYLQMNSLRAEDTAVYYCARLYNGNSLDYWGQGTLVTVSS
VL: DIQMTQSPSSLSASVGDRVTITCKSSQSLLNSGNQKSYLTWYQQKPGKAPKLLIYWASTLESGVPSRFSGSGSGTDYTLTISSLQPEDFATYYCQNGYSFPFTFGQGTKVEIK
B4: h5C9oe (antibody, V domains shown)
VH: EVQLVESGGGLVQPGGSLRLSCAVSGYTFSMNWVRQAPGKGLEWVAWINMYTGEPTYADDFKGRFTISRDDSKNTLYLQMNSLRAEDTAVYYCARLYNGNSLDYWGQGTLVTVSS
VL: DIQMTQSPSSLSASVGDRVTITCKSSQSLLNSGNQKSYLTWYQQKPGKAPKLLIYWASTLESGVPSRFSGSGSGTDYTLTISSLQPEDFATYYCQNAYRFPFTFGQGTKVEIK
B5: h5C9od (antibody, V domains shown)
VH: EVQLVESGGGLVQPGGSLRLSCAVSGYTFSMNWVRQAPGKGLEWVAWINMYTGEPTYADDFKGRFTISRDDSKNTLYLQMNSLRAEDTAVYYCARLYNGNSLDYWGQGTLVTVSS
VL: DIQMTQSPSSLSASVGDRVTITCKSSQSLLNSGNQKSYLTWYQQKPGKAPKLLIYWASTLESGVPSRFSGSGSGTDYTLTISSLQPEDFATYYCQNAYWFPFTFGQGTKVEIK
B6: h5C9of (antibody, V domains shown)
VH: EVQLVESGGGLVQPGGSLRLSCAVSGYTFSMNWVRQAPGKGLEWVAWINMYTGEPTYADDFKGRFTISRDDSKNTLYLQMNSLRAEDTAVYYCARLYNGNSLDYWGQGTLVTVSS
VL: DIQMTQSPSSLSASVGDRVTITCKSSQSLLNSGNQKSYLTWYQQKPGKAPKLLIYWASTLESGVPSRFSGSGSGTDYTLTISSLQPEDFATYYCQNSYSFPFTFGQGTKVEIK
B7: h5C9oar (antibody, V domains shown)
VH: EVQLVESGGGLVQPGGSLRLSCAVSGYTFSMNWVRQAPGKGLEWVAWINMYTGEPNYADDFKGRFTISRDDSKNTLYLQMNSLRAEDTAVYYCARLYNGNSLDYWGQGTLVTVSS
VL: DIQMTQSPSSLSASVGDRVTITCKSSQSLLNWGNQKSYLTWYQQKPGKAPKLLIYWASTLWSGVPSRFSGSGSGTDYTLTISSLQPEDFATYYCQNAYSFPFTFGQGTKVEIK
B8: h5C9oak (antibody, human IgG1, kappa, V domains shown)
VH: EVQLVESGGGLVQPGGSLRLSCAVSGYTFSMNWVRQAPGKGLEWVAWINMYTGEPTYADDFKGRFTISRDDSKNTLYLQMNSLRAEDTAVYYCARSSRGNGFDYWGQGTLVTVSS
VL: DIQMTQSPSSLSASVGDRVTITCKSSQSLLNSGNQKSYLTWYQQKPGKAPKLLIYWASTLESGVPSRFSGSGSGTDYTLTISSLQPEDFATYYCQNAYYFPFTFGQGTKVEIKR
B9: h5C9oab (antibody, V domains shown)
VH: EVQLVESGGGLVQPGGSLRLSCAVSGYTFSMNWVRQAPGKGLEWVAWINMYTGEPTYADDFKGRFTISRDDSKNTLYLQMNSLRAEDTAVYYCARLYNGNSLDYWGQGTLVTVSS
VL: DIQMTQSPSSLSASVGDRVTITCKSSQSLLNSGNQKSYLTWYQQKPGKAPKLLIYWASTLESGVPSRFSGSGSGTDYTLTISSLQPEDFATYYCQNAYYFPFTFGQGTKVEIK
B10: h5C9oaj (antibody, human IgG1, kappa, V domains shown)
VH: EVQLVESGGGLVQPGGSLRLSCAVSGYTFSMNWVRQAPGKGLEWVAWINMYTGEPTYADDFKGRFTISRDDSKNTLYLQMNSLRAEDTAVYYCARLARGNSIDYWGQGTLVTVSS
VL: DIQMTQSPSSLSASVGDRVTITCKSSQSLLNSGNQKSYLTWYQQKPGKAPKLLIYWASTLESGVPSRFSGSGSGTDYTLTISSLQPEDFATYYCQNAYYFPFTFGQGTKVEIKR
B11: h5C9oaf (antibody, V domains shown)
VH: EVQLVESGGGLVQPGGSLRLSCAVSGYTFSMNWVRQAPGKGLEWVAWINMYTGEPTYADDFKGRFTISRDDSKNTLYLQMNSLRAEDTAVYYCARLFNGNSLDYWGQGTLVTVSS
VL: DIQMTQSPSSLSASVGDRVTITCKSSQSLLNSGNQKSYLTWYQQKPGKAPKLLIYWASTLESGVPSRFSGSGSGTDYTLTISSLQPEDFATYYCQNAYYFPFTFGQGTKVEIKR
B12: h5C9oad (antibody, V domains shown)
VH: EVQLVESGGGLVQPGGSLRLSCAVSGYTFSMNWVRQAPGKGLEWVAWINMYTGEPTYADDFKGRFTISRDDSKNTLYLQMNSLRAEDTAVYYCARLYRGNSLDYWGQGTLVTVSS
VL: DIQMTQSPSSLSASVGDRVTITCKSSQSLLNSGNQKSYLTWYQQKPGKAPKLLIYWASTLESGVPSRFSGSGSGTDYTLTISSLQPEDFATYYCQNAYYFPFTFGQGTKVEIK
B13: 14D7 (antibody, V domains shown)
VH: VQLQQSGGGLVQPGGSRKLSCAASGFTFSSFGMHWVRQAPEKGLEWVGYINSGSSTIYYADTVKGRFTISRDNPRNTLFLQMTSLRSEDTAMYYCASGAYYGNAMDYWGQGTSVTVSS
VL: MTQDELSLTVTAGEKVTMSCKSSQSLLNSGNQRNYLTWYQQKPGQPPKLLIYWASTRESGVPNRFTGSGSGTDFTLTISSVQAVDLAVYYCQNNYFYPLTFGSGTKLELK
B14: 5G7 (antibody, V domains shown)
VH: KVQLQESGPELVRPGTSVKVSCKASKYAFTNYLIEWIKQRPGQGLEWIGMINPGSDGSHYNEKFKGKATLTADKSSSTAYMQLSSLTSDDSAVYFCARVGYGNSFAYWGQGTLVTVSA
VL: MTQDELSLTVTAGEKVTLSCKSSQSLLNSGNQRNYLTWYQQKKGQPPKLLIYWASTRESGVPDRLTGSGSGTDFTLTISGVQAEDLAVYYCQNAYYYPFTFGSGTKLEIK
B15: 4G3 (antibody, V domains shown)
VH: KVQLQQSGGGLVQPGGSRKLSCAASGFTFSSFGMHWVRQAPEKGLEWVGYINSGSSTIYYADTVKGRFTISRDNPRNTLFLQMTSLRSEDTAMYYCASGAYYGNAMDYWGQGTSVTVSS
VL: DIVMTQDELSLTVTVGDKVTMNCRSSQSLLNSGNQRNYLTWYQQKPGQPPKLLIYWASTRESGVPDRFTGSGSGTDFTLTISSVQAEDLAVYYCQNVYFYPLTFGTGTKLELK
B16: 14B7 (antibody, V domains shown)
VH: KVKLQESGPELVKPGASVKIPCKASGYTFTDYKMDWVKQSHGKSLEWIGDINPNNGGTIYNQKFKGKATLTVDRSSSTAYMELRSLTSEDTAVYYCARSYYGNSLAYWGQGTLVTVSA
VL: DIVMTQDELSLTVTAGEKVTMSCKSSQSLLNSGNQKNYLTWYQQKPGLPPKLLIYWASTRESGVPDRFTGSGSGTDFTLTISSVQAEDLAVYYCQNNYIYPLTFGAGTKLELK
B17: 1D5 (antibody, V domains shown)
VH: VQLQESGAELVRPGTSVKVSCKASRYAFTNYLIEWVKQRPGQGLEWIGMINPGSGGTHYNEKFKVKATLTADKSSSTAYMQLNSLTSDDSAVYFCARGGFGNSFAYWGQGTLVTVSA
VL: DIMMTQTPLSLTVTAGEKVTMSCKSSQSLLNGGNLKNYLTWYQQKPGQPPKLLTYWASTRESGVPARFTGSGSGTDFTLTISSVQAEDLAVYYCQNGYFYPYTFGGGTKLEIK
B18: 7A10 (antibody, V domains shown)
VH: VQLQESGAELVRPGTSVKVSCKASGYAFTNYLIEWVKQRPGQGLEWIGMINPGSGGTNYNEKFKGKATLTADKSSSTAYMQLSSLTSDDSAVYFCARGGFGNSFAYWGQGTLVTVSA
VL: DIMMTQSPLSLTVTAGEKVTMSCKSSQSLLNSGNLKNYLTWYQQKPGQPPKLLTYWASTRDSGVPARFTGSGSGTDFTLTISSVQAEDLAVYYCQNDYFYPYTFGGGTKLEIK
B19: 5H7 (antibody, V domains shown)
VH: EVKLQESGPSLVKPFQSLSLTCTVTDYSITRGYNWHWIRQFPGNKLEWMGYIHYSGSTNYNPSLKSRISITRDTSKNQFFLQLNSVTTEDTATYYCARDYYGNSFAYWGQGTLVTVFC
VL: DIVMTQDELSLTVTAREKVTMSCKSSQTLFNSGNQKNYLTWYQQKPGQPPKLLIYWASTRESGVPDRFTGSGSGTDFTLTISSVQAEDLAVYYCQNDYIFPYTFGGGTKLEIK
B20: 8C12 (antibody, V domains shown)
VH: EVQLQQSGGGLVQPGGSRKLSCAASGFTFSDYGMAWVRQAPGKGPEWVAFISNLAYSIYSTDTVTGRFTISRENAKNTLYLEMSSLRSDDTAMYYCARGSYYGNSFDYWGQGTTLTVSS
VL: DIVLTQSPAIMSASPGEKVTMTCSASSSVSYMYWYQQKPGSSPKPWIYDTSNLASGFPARFSGSGSGTSYSLIISNMEAEDAATYYCHQRSSYPTFGTGTKLELK

Chain of Recombinant protein Claudin 18.2 (chain, as listed by the source limits assumed, form in doubt): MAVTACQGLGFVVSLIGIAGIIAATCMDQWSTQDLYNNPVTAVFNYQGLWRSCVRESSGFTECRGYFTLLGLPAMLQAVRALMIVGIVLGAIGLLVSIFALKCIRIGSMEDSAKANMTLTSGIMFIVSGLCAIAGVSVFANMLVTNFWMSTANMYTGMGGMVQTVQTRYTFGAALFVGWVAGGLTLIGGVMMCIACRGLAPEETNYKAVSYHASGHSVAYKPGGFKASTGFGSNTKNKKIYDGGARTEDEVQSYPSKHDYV

One assay has as its target Recombinant protein Claudin 18.2. The experiment in a line: ELISA on plate-coated recombinant Claudin 18.2, OD450; Kd table under the graph, no unit in the table, unit from the x axis log[antibody] nM. A general note: In an ELISA, binding on a coated surface is turned into a signal by an enzyme label.
As a reminder, the Kd is the equilibrium constant for the complex coming apart. Turning to B1, the Kd was determined as 0.0894 nM.

As for B2, the Kd is 0.0884 nM. Same read-out and setting: to B3 belongs 0.0848 nM. B4: the Kd is 0.0878 nM. On to B5, for which the Kd came to 0.0876 nM. B6: the Kd amounted to 0.103 nM.

The target is the same in the next assay. The assay is described as above. The source holds these as a separate data set.
Regarding B7, the Kd came out at 0.149 nM.

The target is the same in a further assay. The experiment in a line: ELISA-based assay on Claudin 18.2, y axis RLU; Kd table under the graph, no unit in the table, unit from the x axis log[antibody] nM.
In the case of B8, the Kd was 0.161 nM.

As to B9, the Kd stood at 0.164 nM. For B10, the Kd came out at 0.173 nM.

In the case of B11, the Kd was found to be 0.162 nM. For the molecule B12, the Kd amounted to 0.175 nM.

The target is the same in the next assay. The experiment in a line: ELISA on plate-coated recombinant Claudin 18.2, OD370; Kd table under the graph, no unit in the table, unit from the x axis log[antibody] nM.
For B13, the Kd worked out at 0.1 nM. Take B14: the Kd stood at 0.293 nM.

B15: the Kd turned out to be 0.343 nM. B16: the Kd turned out to be 0.2 nM. On to B17, for which the Kd is 0.055 nM.

Regarding B18, the Kd turned out to be 0.103 nM. The same measure, in the same setting: to B19 belongs 0.136 nM; to B20, 0.0782 nM.
